US20240417463A1 (ADAGENE PTE, published 2024)
Each block holds one molecule with its values, some of them ahead of it.

Assays:
[1] = biological target: human CD47 on the cell surface (CEM, Raji and other human tumor cells, human RBCs) (human) (UniProt Q08722); assay: flow cytometry, human RBCs, batch 2
[2] = biological target: T1, human CD47 on the cell surface (CEM, Raji and other human tumor cells, human RBCs) (human, UniProt Q08722 19-323); assay: cell-based or functional assay
[3] = biological target: T1, human CD47 on the cell surface (CEM, …); assay: flow cytometry, CEM cells, batch 2; CEM tumor cells, batch 2
[4] = biological target: T1, human CD47 on the cell surface (CEM, …); assay: flow cytometry, Raji cells, batch 3; Raji tumor cells, batch 3
[5] = biological target: T2, hCD47-ECD/Fc protein (Sinobiological) (human, UniProt Q08722 19-139, biotinylated in the Octet assay, sites not stated); assay: BLI (Octet RED96), biotin-hCD47-ECD/Fc on SA sensors, 1:1 model;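 further: test antibodies as analytes, 300 s association then 300 s dissociation in running buffer, with benchmark reference antibodies run as controls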
T2 construct: extracellular domain; Bought protein; also called human CD47-Fc antigen; recombinant hCD47-ECD/Fc; not shown: Fc part of the bought fusion protein

max MFI [1]: 105 MFI
Molecule: Isotype control (RBC binding, Table 15) (antibody)

EC50 of macrophage phagocytosis of CEM cells, donor A [2]: 4.4 nM
EC50 of macrophage phagocytosis of CEM cells, donor B [2]: 0.83 nM
Max. Phagocytosis (%), donor A [2]: 29.7%
Max. Phagocytosis (%), donor B [2]: 29%
EC50 [3]: 1.18 nM
EC50 [4]: 1.97 nM
Kd [5]: 1.4 nM
koff [5]: 0.000729 s⁻¹
kon [5]: 520000 M⁻¹ s⁻¹
B1: TAC2407 (antibody, V domains shown)
VH: EVQLVESGGGLVKPGGSLRLSCAASGLTFERAWMNWVRQAPGKGLEWVGRIKRKTDGETTDYAAPVKGRFSISRDDSKNTLYLQMNSLKTEDTAVYYCAGSNRAFDIWGQGTMVTVSS
VL: DIVMTQSPDSLAVSLGERATINCKSSQSVLYAGNNRNYLAWYQQKPGQPPKLLINQASTRASGVPDRFSGSGSGTEFTLIISSLQAEDVAIYYCQQYYTPPLAFGGGTKLEIK
notes: Benchmark anti-CD47 antibody; also called 13H3; TJC4
